Laboratory results reported in US20210380703A1 (RIGEL PHARMACEUTICALS, published 2021).
Changes are numbered by the printed parent chain. Blank lines part the entries; values can stand above or below the binder they belong to.

Tests used:
Goat anti-Human Kappa = molecular target: T1, Goat anti-Human Kappa; experiment: ELISA; positive control
T1 construct: Positive control; also called biotinylated goat anti-human kappa light chain
Procedure, shortened: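 Monoclonal antibodies were first applied to human or mouse ACVR2A, alongside biotinylated goat anti-human kappa light chain (positive control) and human Fc (negative control); binding was then determined by ELISA.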

Mouse ACVR2A = Mouse ACVR2A (mouse, UniProt P27038 20-135, limits assumed); experiment: ELISA
Procedure, shortened: (§1)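 Binding signal was read by ELISA after ACVR2A-specific monoclonal antibodies were tested against human ACVR2A and mouse ACVR2A, with human Fc as the negative control.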

Human ACVR2A = molecular target: T2, Human ACVR2A (human, UniProt P27037 20-135, limits assumed); experiment: ELISA
T2 construct: also called activin receptor, type II A
Procedure, shortened: as §1
Note: test concentration or dose not given here.

T2 sequence (P27037 20-135 limits assumed): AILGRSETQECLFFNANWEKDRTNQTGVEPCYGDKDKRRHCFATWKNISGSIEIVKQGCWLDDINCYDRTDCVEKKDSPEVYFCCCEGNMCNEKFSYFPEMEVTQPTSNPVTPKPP
Mouse ACVR2A, sequence (P27038 20-135 limits assumed): as the sequence (P27037 20-135 limits assumed) above, with K20R, V73I counted along it

optical density (Goat anti-Human Kappa): 1.12 OD
optical density (Mouse ACVR2A): 1.23 OD
optical density (Human ACVR2A): 1.03 OD
B1: 369_E08 (antibody, V domains shown)
VH: EVQLLESGGGLVQPGGSLRLSCAASGFTFSSYSMNWVRQAPGKGLEWVASINYNSGYTGYADSVKGRFTISRDNSKNTLYLQMNSLRAEDTAVYYCARGATWHDTHLDYWGQGTLVTVSS
VL: DIQMTQSPSSLSASVGDRVTITCRASQSILTYVNWYQQKPGKAPKLLIYAATSRASGVPSRFSGSGSGTDFTLTISSLQPEDFATYYCQQSYDSPLTFGGGTKVEIK
notes: VH/VL only

optical density (Goat anti-Human Kappa): 3.55 OD
optical density (Mouse ACVR2A): 3.41 OD
optical density (Human ACVR2A): 3.14 OD
B2: 370_C06 (antibody, V domains shown)
VH: B1 VH with S50N, S55G, T58K, G59S
VL: B1 VL with T52S, R54L, A55Q, D93S, S94T
notes: VH/VL only

optical density (Goat anti-Human Kappa): 3.31 OD
optical density (Mouse ACVR2A): 3.28 OD
optical density (Human ACVR2A): 3.04 OD
B3: 369_G05 (antibody, V domains shown)
VH: B1 VH with S50G, S55G, G59S
VL: B1 VL with L30V, T31S, V33L, A55H
notes: VH/VL only

optical density (Goat anti-Human Kappa): 3.65 OD
optical density (Mouse ACVR2A): 2.86 OD
optical density (Human ACVR2A): 2.62 OD
B4: 372_H11 (antibody, V domains shown)
VH: B1 VH with S33G, N35H, S50G, S55G, G59S
VL: B1 VL with T31S, D93E, S94N
notes: VH/VL only

optical density (Goat anti-Human Kappa): 3.58 OD
optical density (Mouse ACVR2A): 3.27 OD
optical density (Human ACVR2A): 3.26 OD
B5: 371_B01 (antibody, V domains shown)
VH: B1 VH with S30D, A49S, S50N
VL: B1 VL with T31S, R54L, S94L
notes: VH/VL only

optical density (Goat anti-Human Kappa): 3.5 OD
optical density (Mouse ACVR2A): 3.01 OD
optical density (Human ACVR2A): 3.11 OD
B6: 372_B09 (antibody, V domains shown)
VH: B1 VH with A49S, G59S
VL: B1 VL with V33L, D93E, S94T
notes: VH/VL only

optical density (Goat anti-Human Kappa): 3.35 OD
optical density (Mouse ACVR2A): 1.38 OD
optical density (Human ACVR2A): 1.3 OD
B7: 370_C10 (antibody, V domains shown)
VH: B1 VH with S30D, A49S, S50N, T58K
VL: B1 VL with L30V, T31S, A51T, D93S
notes: VH/VL only

optical density (Goat anti-Human Kappa): 3.63 OD
optical density (Mouse ACVR2A): 2.89 OD
optical density (Human ACVR2A): 2.68 OD
B8: 370_F02 (antibody, V domains shown)
VH: B1 VH with S30D, S33G, S50N, S55G
VL: B1 VL with T31S, V33L, A51V, A55H
notes: VH/VL only

optical density (Goat anti-Human Kappa): 3.36 OD
optical density (Mouse ACVR2A): 1.45 OD
optical density (Human ACVR2A): 1.39 OD
B9: 371_C07 (antibody, V domains shown)
VH: B1 VH with S30D, S33G, A49S, S50N, S55G, H106A
VL: B1 VL with T31S, V33L, R54L, S94T
notes: VH/VL only

optical density (Goat anti-Human Kappa): 3.64 OD
optical density (Mouse ACVR2A): 3.57 OD
optical density (Human ACVR2A): 3.55 OD
B10: 370_F12 (antibody, V domains shown)
VH: B1 VH with S31D, S50N, S55G
VL: B1 VL with T31S, V33L, T52S, R54L, A55Q
notes: VH/VL only

optical density (Goat anti-Human Kappa): 3.6 OD
optical density (Mouse ACVR2A): 3.12 OD
optical density (Human ACVR2A): 2.89 OD
B11: 371_H11 (antibody, V domains shown)
VH: B1 VH with A49S, S50G, S55G, T58K
VL: B1 VL with V33L, A51T, A55H, D93E
notes: VH/VL only

optical density (Goat anti-Human Kappa): 3.52 OD
optical density (Mouse ACVR2A): 2.77 OD
optical density (Human ACVR2A): 2.58 OD
B12: 370_E05 (antibody, V domains shown)
VH: B1 VH with S33G, A49S, S50N, S55G, T58K
VL: B1 VL with L30S, V33L, L47V, A51V, D93N
notes: VH/VL only

optical density (Goat anti-Human Kappa): 1.82 OD
optical density (Mouse ACVR2A): 1.3 OD
optical density (Human ACVR2A): 1.19 OD
B13: 371_F03 (antibody, V domains shown)
VH: B1 VH with A49S, S50G, S55G, G59S
VL: B1 VL with L30I, V33L, R54L, A55H, S94N
notes: VH/VL only

optical density (Goat anti-Human Kappa): 3.67 OD
optical density (Mouse ACVR2A): 3.14 OD
optical density (Human ACVR2A): 3 OD
B14: 370_F01 (antibody, V domains shown)
VH: B1 VH with S33G, A49S, S50N, S55G, G59S
VL: B1 VL with L30V, T31S, V33L
notes: VH/VL only

optical density (Goat anti-Human Kappa): 3.6 OD
optical density (Mouse ACVR2A): 3.38 OD
optical density (Human ACVR2A): 3.23 OD
B15: 369_F09 (antibody, V domains shown)
VH: B1 VH with S33G, N35H, S50G, S55G, G59S
VL: B1 VL
notes: VH/VL only

optical density (Goat anti-Human Kappa): 3.62 OD
optical density (Mouse ACVR2A): 2.99 OD
optical density (Human ACVR2A): 3.09 OD
B16: 371_E12 (antibody, V domains shown)
VH: B1 VH with S30D, A49S, S50G, T58K, G59S
VL: B1 VL with T31S, V33L, R54L, S94T
notes: VH/VL only

optical density (Goat anti-Human Kappa): 3.46 OD
optical density (Mouse ACVR2A): 0.931 OD
optical density (Human ACVR2A): 0.796 OD
B17: 369_F05 (antibody, V domains shown)
VH: B1 VH with A49S, S50G, S55G, T58K, G59S
VL: B1 VL with L30S, T31S, V33L, T52S, R54L, A55Q, S91G
notes: VH/VL only

optical density (Goat anti-Human Kappa): 3.45 OD
optical density (Mouse ACVR2A): 3.18 OD
optical density (Human ACVR2A): 2.99 OD
B18: 371_E05 (antibody, V domains shown)
VH: B1 VH with S50G, S55G, G59S
VL: B1 VL with L30I, T31S, V33L, L47V, D93S
notes: VH/VL only

optical density (Goat anti-Human Kappa): 3.6 OD
optical density (Mouse ACVR2A): 3.57 OD
optical density (Human ACVR2A): 3.37 OD
B19: 371_F09 (antibody, V domains shown)
VH: B1 VH with S50G, S55G, G59S
VL: B1 VL with V33L, S94N
notes: VH/VL only

optical density (Goat anti-Human Kappa): 3.44 OD
optical density (Mouse ACVR2A): 3.01 OD
optical density (Human ACVR2A): 2.49 OD
B20: 371_C06 (antibody, V domains shown)
VH: B1 VH with A49S, S55G, G59S
VL: B1 VL with L30S, T31S, V33L, A51V, S94L
notes: VH/VL only

optical density (Goat anti-Human Kappa): 3.69 OD
optical density (Mouse ACVR2A): 3.09 OD
optical density (Human ACVR2A): 3.01 OD
B21: 372_F02 (antibody, V domains shown)
VH: B1 VH with S33G, N35H, S55G, G59S
VL: B1 VL with V33L, L47V, A55H, S94L
notes: VH/VL only

optical density (Goat anti-Human Kappa): 1.79 OD
optical density (Mouse ACVR2A): 2.24 OD
optical density (Human ACVR2A): 2.01 OD
B22: 371_G01 (antibody, V domains shown)
VH: B1 VH with S31D, A49S, S50N, S55G, G59S
VL: B1 VL with V33L, R54L, S94L
notes: VH/VL only

optical density (Goat anti-Human Kappa): 3.48 OD
optical density (Mouse ACVR2A): 2.53 OD
optical density (Human ACVR2A): 2.92 OD
B23: 370_D09 (antibody, V domains shown)
VH: B1 VH with S31D, A49S, S50G, G59S
VL: B1 VL with L30V, V33L, L47V, S94T
notes: VH/VL only

optical density (Goat anti-Human Kappa): 3.4 OD
optical density (Mouse ACVR2A): 2.72 OD
optical density (Human ACVR2A): 2.57 OD
B24: 370_E04 (antibody, V domains shown)
VH: B1 VH with S50N, S55G, T58K
VL: B1 VL with V33L, A51V, R54L, A55H, D93E, S94T
notes: VH/VL only

optical density (Goat anti-Human Kappa): 3.56 OD
optical density (Mouse ACVR2A): 3.23 OD
optical density (Human ACVR2A): 3.16 OD
B25: 369_H08 (antibody, V domains shown)
VH: B1 VH with S50G, T58K, G59S
VL: B1 VL with T31S, L47V, R54L, D93E
notes: VH/VL only

optical density (Goat anti-Human Kappa): 3.62 OD
optical density (Mouse ACVR2A): 3.56 OD
optical density (Human ACVR2A): 3.48 OD
B26: 370_H04 (antibody, V domains shown)
VH: B1 VH with A49S, S50N, S55G
VL: B1 VL with T31S, S94L
notes: VH/VL only

optical density (Goat anti-Human Kappa): 3.3 OD
optical density (Mouse ACVR2A): 3.37 OD
optical density (Human ACVR2A): 3.35 OD
B27: 370_C07 (antibody, V domains shown)
VH: B1 VH with S50N, S55G, T58K, G59S
VL: B1 VL with T31S, V33L, A55H, D93E
notes: VH/VL only

optical density (Goat anti-Human Kappa): 2.64 OD
optical density (Mouse ACVR2A): 2.27 OD
optical density (Human ACVR2A): 2.11 OD
B28: 371_E08 (antibody, V domains shown)
VH: B1 VH with A49S, S50N, T58K, G59S
VL: B1 VL with L30V, T31S, L47V, A55H, S94L
notes: VH/VL only

optical density (Goat anti-Human Kappa): 3.15 OD
optical density (Mouse ACVR2A): 2.28 OD
optical density (Human ACVR2A): 2.08 OD
B29: 371_E09 (antibody, V domains shown)
VH: B1 VH with S31D, A49S, S50G, G59S
VL: B1 VL with V33L, D93N
notes: VH/VL only

optical density (Goat anti-Human Kappa): 3.65 OD
optical density (Mouse ACVR2A): 3.42 OD
optical density (Human ACVR2A): 3.46 OD
B30: 369_H12 (antibody, V domains shown)
VH: B1 VH with S50G, S55G, T58K, G59S
VL: B1 VL with L30V, L47V
notes: VH/VL only

optical density (Goat anti-Human Kappa): 3.56 OD
optical density (Mouse ACVR2A): 3.33 OD
optical density (Human ACVR2A): 3.21 OD
B31: 370_G08 (antibody, V domains shown)
VH: B1 VH with S31D, S50G, S55G
VL: B1 VL with V33L, L47V, D93E
notes: VH/VL only

optical density (Goat anti-Human Kappa): 3.58 OD
optical density (Mouse ACVR2A): 3.25 OD
optical density (Human ACVR2A): 3.13 OD
B32: 370_D03 (antibody, V domains shown)
VH: B1 VH with S55G, G59S
VL: B1 VL with L30I, V33L, S94L
notes: VH/VL only

optical density (Goat anti-Human Kappa): 3.35 OD
optical density (Mouse ACVR2A): 3.25 OD
optical density (Human ACVR2A): 3.13 OD
B33: 370_B08 (antibody, V domains shown)
VH: B1 VH with S31D, S50N, S55G
VL: B1 VL with T31S, V33L, T52S, R54L, A55Q
notes: VH/VL only

optical density (Goat anti-Human Kappa): 3.51 OD
optical density (Mouse ACVR2A): 3.39 OD
optical density (Human ACVR2A): 3.22 OD
B34: 370_H06 (antibody, V domains shown)
VH: B1 VH with S30D, S31D, S50N, S55G
VL: B1 VL with V33L, D93E, S94T
notes: VH/VL only

optical density (Goat anti-Human Kappa): 3.57 OD
optical density (Mouse ACVR2A): 3.29 OD
optical density (Human ACVR2A): 3.09 OD
B35: 369_H02 (antibody, V domains shown)
VH: B1 VH with S30D, S31D, A49S, S50N, S55G, T58K, G59S
VL: B1 VL with L30I, T31S, V33L
notes: VH/VL only

optical density (Goat anti-Human Kappa): 3.51 OD
optical density (Mouse ACVR2A): 2.82 OD
optical density (Human ACVR2A): 2.56 OD
B36: 372_E08 (antibody, V domains shown)
VH: B1 VH with S31D, A49S, S50N, S55G, G59S
VL: B1 VL with L30I, V33L, D93N, S94L
notes: VH/VL only
